Laboratory results from paper PMC4548480, “Structures of the Ultra-High-Affinity Protein–Protein Complexes of Pyocins S2 and AP41 and Their Cognate Immunity Proteins from Pseudomonas aeruginosa” (Journal of Molecular Biology, 2015).

Molecular target: T1, pyocin S2 DNase domain (Pseudomonas aeruginosa, UniProt Q06584 556-688)
T1 construct: pyocin S2, Pseudomonas aeruginosa, residues 556-688 found in the crystal after crystallisation of the intact PyoS2-ImS2 complex with chymotrypsin; The fragment of PyoS2 in the crystal was unknown to the authors; The limits 556-688 are those found in the solved structure; also called PyoS2 DNase; PyoS2; source: crystallised in the presence of chymotrypsin
T1 sequence: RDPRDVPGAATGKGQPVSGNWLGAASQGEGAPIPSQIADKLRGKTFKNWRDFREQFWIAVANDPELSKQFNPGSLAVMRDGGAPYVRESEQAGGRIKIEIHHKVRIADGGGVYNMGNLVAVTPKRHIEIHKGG
Assay: crystal structure; intact PyoS2-ImS2 complex crystallised with chymotrypsin (1:100); 0.2 M sodium bromide, 20% (w/v) PEG 3350, 0.1 M Bis-tris propane pH 6.5; 1.8 Å; four copies of the complex in the asymmetric unit
Conditions: both partners purified

B1: pyocin S2 immunity protein ImS2 (natural protein)
chain: MKSKISEYTEKEFLEFVKDIYTNNKKKFPTEESHIQAVLEFKKLTEHPSGSDLLYYPNENREDSPAGVVKEVKEWRASKGLPGFKAG
notes: immunity protein of pyocin S2 (ImS2), Pseudomonas aeruginosa, full length; the entirety of the immunity protein was present in the crystal
Does B1 bind?
Result: binds
